Results taken from PMC9482650, “Quantitative fragmentomics allow affinity mapping of interactomes” (Nature Communications, 2022).
Changes are numbered by the printed parent chain.

Key:
Experiment in all cases: holdup assay
Parameters in all cases: key: below the threshold = too weak to quantify, mostly under pKd 3.1 to 4
Details in all cases: plain residues with an end cap or a label only (N-terminal biotin on a linker: ado-ado)
ARHGAP21, Q5T5U3 = molecular target: T1, ARHGAP21, Q5T5U3
T1 sequence (Q5T5U3 45-169, limits assumed, looked up): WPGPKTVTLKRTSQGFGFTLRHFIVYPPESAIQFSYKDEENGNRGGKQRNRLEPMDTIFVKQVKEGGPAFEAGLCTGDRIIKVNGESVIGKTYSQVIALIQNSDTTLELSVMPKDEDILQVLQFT

PCLO, Q9Y6V0 = molecular target: T2, PCLO, Q9Y6V0
T2 sequence (Q9Y6V0 4491-4600, limits assumed, looked up): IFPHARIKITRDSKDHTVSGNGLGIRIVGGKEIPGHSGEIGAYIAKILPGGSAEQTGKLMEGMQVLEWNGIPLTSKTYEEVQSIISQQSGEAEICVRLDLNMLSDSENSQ

MPP7, Q5T2T1 = molecular target: T3, MPP7, Q5T2T1
T3 sequence (Q5T2T1 134-230, limits assumed, looked up): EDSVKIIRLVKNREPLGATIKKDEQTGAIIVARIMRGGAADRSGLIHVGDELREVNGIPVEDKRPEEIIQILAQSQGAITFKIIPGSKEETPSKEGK

MAGI3_2, Q5TCQ9 = molecular target: MAGI3_2, Q5TCQ9
Sequence of MAGI3_2, Q5TCQ9 (Q5TCQ9 398-503): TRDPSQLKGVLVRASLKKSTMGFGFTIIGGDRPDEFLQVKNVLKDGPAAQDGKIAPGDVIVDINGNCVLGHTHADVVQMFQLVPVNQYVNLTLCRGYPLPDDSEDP

GRIP1_7, Q9Y3R0 = molecular target: T4, GRIP1_7, Q9Y3R0
T4 sequence (Q9Y3R0 999-1096, limits assumed, looked up): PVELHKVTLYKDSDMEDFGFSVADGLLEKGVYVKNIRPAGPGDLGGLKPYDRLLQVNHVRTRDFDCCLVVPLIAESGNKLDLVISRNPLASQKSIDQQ

MAGI2_6, Q86UL8 = molecular target: MAGI2_6, Q86UL8
Sequence of MAGI2_6, Q86UL8 (Q86UL8 1141-1229): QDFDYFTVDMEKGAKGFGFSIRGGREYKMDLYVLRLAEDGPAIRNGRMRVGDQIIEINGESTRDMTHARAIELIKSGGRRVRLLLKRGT

GRIP2_4, Q9C0E4 = molecular target: GRIP2_4, Q9C0E4
Sequence of GRIP2_4, Q9C0E4 (Q9C0E4 446-548): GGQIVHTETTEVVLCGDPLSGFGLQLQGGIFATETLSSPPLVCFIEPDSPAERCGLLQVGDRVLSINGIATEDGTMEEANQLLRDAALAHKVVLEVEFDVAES

IL16_1, Q14005 = molecular target: IL16_1, Q14005
Sequence of IL16_1, Q14005 (Q14005 210-306): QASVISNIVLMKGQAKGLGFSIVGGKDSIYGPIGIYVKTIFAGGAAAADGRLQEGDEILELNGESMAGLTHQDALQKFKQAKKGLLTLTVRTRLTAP

NHERF4_2, Q86UT5 = molecular target: NHERF4_2, Q86UT5
Sequence of NHERF4_2, Q86UT5 (Q86UT5 220-308): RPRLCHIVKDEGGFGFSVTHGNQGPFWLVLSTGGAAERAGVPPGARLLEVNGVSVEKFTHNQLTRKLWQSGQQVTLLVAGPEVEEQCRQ

HTRA4, P83105 = molecular target: T5, HTRA4, P83105
T5 sequence (P83105 378-476, limits assumed, looked up): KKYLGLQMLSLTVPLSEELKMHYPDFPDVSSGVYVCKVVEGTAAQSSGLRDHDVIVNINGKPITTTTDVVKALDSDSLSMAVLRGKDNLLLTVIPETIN

APBA1_2, Q02410 = molecular target: T6, APBA1_2, Q02410
T6 sequence (Q02410 742-832, limits assumed, looked up): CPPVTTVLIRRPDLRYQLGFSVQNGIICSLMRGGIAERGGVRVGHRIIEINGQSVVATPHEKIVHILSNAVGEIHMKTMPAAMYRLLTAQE

MPDZ_5, O75970 = molecular target: T7, MPDZ_5, O75970
T7 sequence (O75970 695-796, limits assumed, looked up): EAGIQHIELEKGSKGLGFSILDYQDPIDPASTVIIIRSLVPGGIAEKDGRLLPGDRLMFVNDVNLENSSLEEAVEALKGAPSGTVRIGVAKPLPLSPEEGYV

MPP6, Q9NZW5 = molecular target: T8, MPP6, Q9NZW5
T8 sequence (Q9NZW5 125-219, limits assumed, looked up): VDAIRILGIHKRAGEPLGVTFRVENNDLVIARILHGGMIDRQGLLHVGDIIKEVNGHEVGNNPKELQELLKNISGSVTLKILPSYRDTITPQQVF

MAGI2_3, Q86UL8 = molecular target: MAGI2_3, Q86UL8
Sequence of MAGI2_3, Q86UL8 (Q86UL8 600-682): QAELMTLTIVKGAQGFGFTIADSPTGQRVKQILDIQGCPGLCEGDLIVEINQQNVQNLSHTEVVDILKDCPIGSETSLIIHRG

DLG1_3, Q12959 = molecular target: DLG1_3, Q12959
SCRIB_2, Q14160 = molecular target: SCRIB_2, Q14160
Sequence of SCRIB_2, Q14160 (Q14160 857-960): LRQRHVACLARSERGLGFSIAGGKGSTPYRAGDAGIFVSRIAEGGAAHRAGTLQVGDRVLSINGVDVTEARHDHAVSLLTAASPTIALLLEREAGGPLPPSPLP

LNX1_1, Q8TBB1 = molecular target: LNX1_1, Q8TBB1
Sequence of LNX1_1, Q8TBB1 (Q8TBB1 261-371): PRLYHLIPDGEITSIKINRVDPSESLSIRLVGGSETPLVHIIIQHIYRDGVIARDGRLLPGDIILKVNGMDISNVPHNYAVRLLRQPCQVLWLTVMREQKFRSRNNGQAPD

MPP2, Q14168 = molecular target: T9, MPP2, Q14168
T9 sequence (Q14168 180-250, limits assumed, looked up): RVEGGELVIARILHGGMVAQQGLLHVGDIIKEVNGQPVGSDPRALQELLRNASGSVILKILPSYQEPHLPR

MPDZ_10, O75970 = molecular target: T10, MPDZ_10, O75970
T10 sequence (O75970 1624-1722, limits assumed, looked up): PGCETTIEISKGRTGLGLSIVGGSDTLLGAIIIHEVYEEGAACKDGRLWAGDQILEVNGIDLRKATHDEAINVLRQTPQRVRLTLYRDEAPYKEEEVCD

APBA2_2, Q99767 = molecular target: T11, APBA2_2, Q99767
T11 sequence (Q99767 654-744, limits assumed, looked up): T6 sequence (Q02410 742-832, limits assumed, looked up) with R10K, R15K, P59A, H65Q, I66A, A70S, Y84F, A89G

LAP2, Q96RT1 = molecular target: LAP2, Q96RT1
Sequence of LAP2, Q96RT1 (Q96RT1 other isoform, or with tags, fused parts or gaps): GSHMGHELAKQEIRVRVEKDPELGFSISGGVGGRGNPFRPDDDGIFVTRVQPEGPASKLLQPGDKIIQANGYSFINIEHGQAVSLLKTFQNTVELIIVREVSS

NHERF2_2, Q15599 = molecular target: NHERF2_2, Q15599
Sequence of NHERF2_2, Q15599 (Q15599 142-238): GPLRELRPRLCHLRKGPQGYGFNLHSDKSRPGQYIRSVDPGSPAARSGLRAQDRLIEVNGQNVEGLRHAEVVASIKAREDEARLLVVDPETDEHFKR

GRIP2_3, Q9C0E4 = molecular target: GRIP2_3, Q9C0E4
Sequence of GRIP2_3, Q9C0E4 (Q9C0E4 238-339): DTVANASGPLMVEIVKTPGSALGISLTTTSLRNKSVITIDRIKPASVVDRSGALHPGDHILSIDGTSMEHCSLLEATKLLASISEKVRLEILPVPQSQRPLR

DLG1_1, Q12959 = molecular target: DLG1_1, Q12959
SNTG2, Q9NY99 = molecular target: T12, SNTG2, Q9NY99
T12 sequence (Q9NY99 68-166, limits assumed, looked up): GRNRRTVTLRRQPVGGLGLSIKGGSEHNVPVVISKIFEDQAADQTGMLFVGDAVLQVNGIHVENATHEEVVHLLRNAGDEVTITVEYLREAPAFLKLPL

GRIP2_5, Q9C0E4 = molecular target: GRIP2_5, Q9C0E4
Sequence of GRIP2_5, Q9C0E4 (Q9C0E4 544-642): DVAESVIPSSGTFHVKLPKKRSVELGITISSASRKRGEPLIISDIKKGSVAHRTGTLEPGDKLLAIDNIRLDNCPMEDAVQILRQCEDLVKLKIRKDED

| Binder | pKd (ARHGAP21, Q5T5U3) | pKd (PCLO, Q9Y6V0) | pKd (MPP7, Q5T2T1) | pKd (MAGI3_2, Q5TCQ9) | pKd (GRIP1_7, Q9Y3R0) | pKd (MAGI2_6, Q86UL8) | pKd (GRIP2_4, Q9C0E4) | pKd (IL16_1, Q14005) | pKd (NHERF4_2, Q86UT5) | pKd (HTRA4, P83105) | pKd (APBA1_2, Q02410) | pKd (MPDZ_5, O75970) | pKd (MPP6, Q9NZW5) | pKd (MAGI2_3, Q86UL8) | pKd (DLG1_3, Q12959) | pKd (SCRIB_2, Q14160) | pKd (LNX1_1, Q8TBB1) | pKd (MPP2, Q14168) | pKd (MPDZ_10, O75970) | pKd (APBA2_2, Q99767) | other results |
| --- | --- | --- | --- | --- | --- | --- | --- | --- | --- | --- | --- | --- | --- | --- | --- | --- | --- | --- | --- | --- | --- |
| GSSSKEGTSV [RRBP1, Q9P2E9] | below the threshold | below the threshold | below the threshold | 4.51 | below the threshold | 4.02 | below the threshold | below the threshold | below the threshold | 3.9 | 4.38 | below the threshold | 3.77 | 3.54 | 3.57 | 4.11 | below the threshold | below the threshold | 3.62 | below the threshold | pKd (LAP2, Q96RT1): 3.65; pKd (NHERF2_2, Q15599): 3.51; pKd (GRIP2_3, Q9C0E4): below the threshold; pKd (DLG1_1, Q12959): 4.02; pKd (SNTG2, Q9NY99): 3.59; pKd (GRIP2_5, Q9C0E4): below the threshold |
| ADRDHASDQL [CTBP1, Q13363] | 4.08 | below the threshold | below the threshold | below the threshold | below the threshold | below the threshold | below the threshold | below the threshold | below the threshold | 3.73 | below the threshold | below the threshold | below the threshold | below the threshold | below the threshold | below the threshold | below the threshold | below the threshold | below the threshold | below the threshold | pKd (LAP2, Q96RT1): below the threshold; pKd (NHERF2_2, Q15599): 3.89; pKd (GRIP2_3, Q9C0E4): below the threshold; pKd (DLG1_1, Q12959): below the threshold; pKd (SNTG2, Q9NY99): below the threshold; pKd (GRIP2_5, Q9C0E4): below the threshold |
